Several values for one entry are separate records, joined by “and”; a condition that tells them apart may be missing. Equal values may be shown once. Entries after “also recorded” stand apart in the source; their conditions may differ.
Key:
[1] = Plasma plasminogen level after tail vein injection in FAD (Alzheimer's model) mice (ELISA); assay type: in vivo, mouse
Experimental: Twenty-seven 16-week-age B6SJL-Tg (APPSwFlLon, PSEN1*M146L* L286V) 6799Vas Mmjax (Stock Number: 034840) (FAD mice for short) (breeding mice were purchased from Jackson Laboratory, USA) were randomly divided into three groups: three mice in vehicle control group, 12 mice in 6 mg/kg plasminogen group, and 12 mice in 50 mg/kg plasminogen group. The mice in the vehicle control group were injected with vehicle at 5 ml/kg by tail vein, the mice in the 6 mg/kg plasminogen group were injected with plasminogen (1.2 mg/ml) at 6 mg/kg body weight by tail vein, and the mice in the 50 mg/kg plasminogen group were injected with plasminogen (10 mg/ml) at 6 mg/kg body weight by tail vein. The mice in the vehicle control group were killed 2 hours after administration, and their blood was collected. Three mice in the 6 mg/kg plasminogen group and three mice in the 50 mg/kg plasminogen group were killed 2, 6, 12 and 24 hours after administration, and their blood was collected. After the blood was centrifuged (3500 rpm, 10 min, 4° C.), the supernatant was taken to detect according to the instructions of Human Plasminogen ELISA Kit (manufacturer: AssayMax, catalog number: EP1200-1). The concentration of each sample was calibrated by using human plasminogen working standard as the internal standard. The calibrated concentration was divided by the total protein concentration to calculate the amount of plasminogen per unit of total protein in each sample and perform statistical analysis.

[2] = Spinal cord tissue plasminogen level after tail vein injection in FAD mice (ELISA)
Experimental: Twenty-seven 16-week-age B6SJL-Tg (APPSwFlLon, PSEN1*M146L* L286V) 6799Vas Mmjax (Stock Number: 034840) (FAD mice for short) (breeding mice were purchased from Jackson Laboratory, USA) were randomly divided into three groups: three mice in vehicle control group, 12 mice in 6 mg/kg plasminogen group, and 12 mice in 50 mg/kg plasminogen group. The mice in the vehicle control group were injected with vehicle at 5 ml/kg by tail vein, the mice in the 6 mg/kg plasminogen group were injected with plasminogen (1.2 mg/ml) at 6 mg/kg body weight by tail vein, and the mice in the 50 mg/kg plasminogen group were injected with plasminogen (10 mg/ml) at 6 mg/kg body weight by tail vein. […] Three mice in the 6 mg/kg plasminogen group and three mice in the 50 mg/kg plasminogen group were killed 2, 6, 12 and 24 hours after administration, and their blood was collected.
Spinal cord tissue was obtained from the mice sacrificed in Example 21, homogenizing and detecting according to the instructions of Human Plasminogen ELISA Kit (manufacturer: AssayMax, catalog number: EP1200-1). The concentration of each sample was calibrated by using human plasminogen working standard as the internal standard. The calibrated concentration was divided by the total protein concentration to calculate the amount of plasminogen per unit of total protein in each sample and perform statistical analysis.

[3] = Brain tissue plasminogen level after tail vein injection in SOD1-G93A mice (ELISA)
Experimental: Twenty-seven 10-15 week-age B6.Cg-Tg (SOD1-G93A) 1Gur/J (SOD1-G93A) mice (pedigree number: 004435) (referred to as SOD1-G93A mice) (breeding mice were purchased from Jackson Laboratory, USA) were randomly divided into three groups: three in the vehicle control group, 12 in the 6 mg/kg plasminogen group, and 12 in the 50 mg/kg plasminogen group. The mice in the vehicle control group were injected with vehicle at 5 ml/kg by tail vein, the mice in the 6 mg/kg plasminogen group were injected with plasminogen (1.2 mg/ml) at 6 mg/kg body weight by tail vein, and the mice in the 50 mg/kg plasminogen group were injected with plasminogen (10 mg/ml) at 6 mg/kg body weight by tail vein.
Brain tissue was obtained from the mice sacrificed in Example 11, homogenizing and detecting according to the instructions of Human Plasminogen ELISA Kit (manufacturer: AssayMax, catalog number: EP1200-1). The human plasminogen working standard in the kit was used as the internal standard to calibrate the concentration of each sample. The calibrated concentration was divided by the total protein concentration to calculate the amount of plasminogen per unit of total protein in each sample and perform statistical analysis.

TDP-43 [4] = target: T1, TDP-43 (Mus musculus, UniProt Q921F2); assay: Immunofluorescence co-localization staining of plasminogen and TDP-43 in gluteal muscle tissue of SOD1-G93A mice; assay type: in vivo; design: from tissue; host or cells: mouse spinal cord, gluteal muscle, brain, kidney cell nuclei; settings: 1 mg/mouse tail vein every day
T1 sequence (Q921F2 whole entry): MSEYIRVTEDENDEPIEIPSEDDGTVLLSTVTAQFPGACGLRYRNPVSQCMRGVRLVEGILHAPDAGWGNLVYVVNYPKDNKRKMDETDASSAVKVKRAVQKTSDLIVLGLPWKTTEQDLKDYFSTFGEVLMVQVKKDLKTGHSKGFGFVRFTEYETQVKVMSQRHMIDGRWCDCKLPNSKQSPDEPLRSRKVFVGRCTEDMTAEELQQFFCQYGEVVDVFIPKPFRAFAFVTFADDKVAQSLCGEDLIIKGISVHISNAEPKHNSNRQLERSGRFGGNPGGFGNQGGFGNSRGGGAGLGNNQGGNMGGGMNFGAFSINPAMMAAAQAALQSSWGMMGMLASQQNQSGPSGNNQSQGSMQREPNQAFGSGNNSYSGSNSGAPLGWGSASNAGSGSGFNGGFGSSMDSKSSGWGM
Experimental: Five wild-type male mice and nine male SOD1-G93A mice of similar week-age were selected. Wild-type mice served as the blank control group, and SOD1-G93A mice were observed and recorded from the time of hind leg tremor when they became ill at week 14, and the onset time of each mouse was recorded. Administering to mice 14 days after the onset of the disease. All mice were randomly divided into a vehicle group and a plasminogen administration group according to the onset of the disease: 5 mice in the vehicle group, which were injected with 0.1 ml of vehicle (sodium citrate buffer)/mouse by tail vein every day; 4 mice in the plasminogen administration group, which were injected with 1 mg of plasminogen/0.1 ml of vehicle/mouse by tail vein every day. The vehicle and plasminogen were administered continuously under SPF environment, and the samples were collected at the near-death stage. The longest administration was 61 days. The gluteal muscle tissue collected was fixed in formalin fixative solution. The fixed tissues were dehydrated with gradient alcohol and transparentized with xylene before being embedded in paraffin. The thickness of tissue sections was 3 μm, and the sections were dewaxed and rehydrated and then washed once. The sections were immersed in antigen retrieval working solution (0.01 M sodium citrate buffer) to perform microwave retrieval: preheating for 5 minutes, high heating for 2 minutes, and low heating for 15 minutes. […] The green fluorescence color development of the corresponding anti-plasminogen secondary antibody was performed according to the instructions of the XTSA520 IHC kit (Alpha X Biotech, AXT6202500), washing 3 times with PBS for 5 minutes each time. […] The red fluorescence color development of the corresponding anti-TDP-43 secondary antibody was performed according to the instructions of the XTSA620 IHC kit (Alpha X Biotech, AXT6502500), washing 3 times with PBS for 5 minutes each time. […]

[5] = Plasminogen level (ELISA) and plasmin activity (enzyme substrate method) in brain homogenate of LPS-treated SOD1-G93A mice; assay type: in vivo, mouse; settings: LPS 5 mg/kg intratracheal, 50 mg/kg tail vein single dose, 6 hours, vs vehicle group
Experimental: Eight 22-week-age SOD1-G93A mice were randomly divided into two groups: a vehicle group and a plasminogen group, with 4 mice in each group. 2.5 mg/mL bacterial lipopolysaccharide (LPS) (Beijing Solebow Technology Co., Ltd., L8880) was administered to the mice in the vehicle group and the plasminogen group via intratracheal instillation, with a modeling dose of 5 mg/kg. Four C57 mice of the same age were selected as normal control mice. Administration began 3 days after LPS treatment. […] The mice were killed 6 hours after the single administration, and the brain tissues were obtained. After homogenization, the plasminogen level was detected by ELISA, and the plasmin activity was detected by enzyme substrate method.

TDP-43 [6] = target: T1, TDP-43; assay: TDP-43 in nuclei of renal cells of SOD1-G93A mice (Western blot); assay type: in vivo; design: from tissue; host or cells: mouse spinal cord, gluteal muscle, brain, kidney cell nuclei; settings: 50 mg/kg tail vein every day, 7 days, vs vehicle group, P<0.05
Experimental: SOD1-G93A mice (Jackson Laboratory, Stock Number: 004435) and C57BL/6J mice aged 9-10 weeks were selected. SOD1-G93A mice were randomly divided into two groups, vehicle group and plasminogen group, and C57BL/6J mice were used as normal control group, with 3 mice in each group. […] No treatment was administered to the normal control mice. The mice were killed after 7 days, and kidney tissues were obtained. The sampled kidney tissue was placed in pre-cooled RPMI-1640 (Sigma-Aldrich) culture medium on ice. After rinsing with PBS, the kidney tissue was cut into small pieces and then incubated with 0.25% trypsin for digestion at 37° C. for 10 min, shaking every 2 min. Digestion was terminated by adding DMEM medium containing 10% fetal newborn calf serum. After centrifugation (1500 rpm, 5 minutes), the supernatant was removed to obtain a single cell pellet. […] The precipitate is the cell nucleus. […] The extracted nuclear protein was tested by western blot for TDP-43.

B1: plasminogen: human plasminogen purified from human donor plasma, in which human Lys-plasminogen and Glu-plasminogen are >98% (protein)
chain: KVYLSECKTGNGKNYRGTMSKTKNGITCQKWSSTSPHRPRFSPATHPSEGLEENYCRNPDNDPQGPWCYTTDPEKRYDYCDILECEEECMHCSGENYDGKISKTMSGLECQAWDSQSPHAHGYIPSKFPNKNLKKNYCRNPDRELRPWCFTTDPNKRWELCDIPRCTTPPPSSGPTYQCLKGTGENYRGNVAVTVSGHTCQHWSAQTPHTHNRTPENFPCKNLDENYCRNPDGKRAPWCHTTNSQVRWEYCKIPSCDSSPVSTEQLAPTAPPELTPVVQDCYHGDGQSYRGTSSTTTTGKKCQSWSSMTPHRHQKTPENYPNAGLTMNYCRNPDADKGPWCFTTDPSVRWEYCNLKKCSGTEASVVAPPPVVLLPDVETPSEEDCMFGNGKGYRGKRATTVTGTPCQDWAAQEPHRHSIFTPETNPRAGLEKNYCRNPDGDVGGPWCYTTNPRKLYDYCDVPQCAAPSFDCGKPQVEPKKCPGRVVGGCVAHPHSWPWQVSLRTRFGMHFCGGTLISPEWVLTAAHCLEKSPRPSSYKVILGAHQEVNLEPHVQEIEVSRLFLEPTRKDIALLKLSSPAVITDKVIPACLPSPNYVVADRTECFITGWGETQGTFGAGLLKEAQLPVIENKVCNRYEFLNGRVQSTELCAGHLAGGTDSCQGDSGGPLVCFEKDKYILQGVTSWGLGCARPNKPGVYVRVSRFVTWIEGVMRNN
[1]; tail vein
  plasma plasminogen level, 50 mg/kg group compared with 6 mg/kg group: significantly higher
[1]; tail vein 50 mg/kg and 6 mg/kg
  time within which plasminogen is almost completely metabolized (plasma): 12 to 24 h
[1]; tail vein injection of 6 mg/kg
  plasma plasminogen level: increase significantly
[1]; tail vein injection of 50 mg/kg
  plasma plasminogen level: increase significantly
[2]; 6 mg/kg plasminogen group, 2 hours
  ratio of plasminogen in spinal cord tissue to plasminogen in blood: 0.93%
[2]; 6 mg/kg plasminogen group, 6 hours
  ratio of plasminogen in spinal cord tissue to plasminogen in blood: 1.62%
[2]; 50 mg/kg plasminogen group, 2 hours
  ratio of plasminogen in spinal cord tissue to plasminogen in blood: 0.33%
[2]; 50 mg/kg plasminogen group, 6 hours
  ratio of plasminogen in spinal cord tissue to plasminogen in blood: 0.40%
[2]; 50 mg/kg plasminogen group, 12 hours
  ratio of plasminogen in spinal cord tissue to plasminogen in blood: 1.56%
[2]; tail vein
  plasminogen level in spinal cord tissue, 50 mg/kg group compared with 6 mg/kg group: significantly higher
[2]; tail vein 50 mg/kg and 6 mg/kg
  time within which plasminogen is almost completely metabolized (spinal cord tissue): 12 to 24 h
[2]; tail vein injection of 6 mg/kg, 6 mg/kg
  plasminogen level in spinal cord tissue: increases significantly
[2]; tail vein injection of 50 mg/kg, 50 mg/kg
  plasminogen level in spinal cord tissue: increases significantly
[3]; SOD1-G93A mice, tail vein
  plasminogen level in brain tissue, 50 mg/kg group compared with 6 mg/kg group: significantly higher
[3]; SOD1-G93A mice, tail vein 50 mg/kg and 6 mg/kg
  time within which plasminogen is almost completely metabolized (brain tissue): 12 to 24 h
[3]; SOD1-G93A mice, tail vein injection of 6 mg/kg
  plasminogen level in brain tissue: increase significantly
[3]; SOD1-G93A mice, tail vein injection of 50 mg/kg
  plasminogen level in brain tissue: increase significantly
[3]; mouse, in vivo
  ratio of brain tissue plasminogen level to blood plasminogen level: 3.47% and 4.94% and 6.79%
TDP-43 [4]
  co-localization of plasminogen with TDP-43 in muscle tissue (cytoplasm and nucleus): co-localizes with TDP-43
  subcellular presence of plasminogen in muscle tissue: present in the cytoplasm (as indicated by Δ) and in the nucleus; also recorded: present in the cytoplasm (as indicated by Δ) and the nucleus
TDP-43 [4]; up to 61 days, vs vehicle group
  positive staining of plasminogen in muscle tissue: significantly more
[5]
  plasmin activity in brain tissue homogenate: significantly higher
  plasminogen level in brain tissue homogenate: significantly higher
TDP-43 [6]
  level of TDP-43 in renal cell nuclei: significantly lower

From patent US20260166131A1, “METHOD FOR PROMOTING PATHOLOGICAL TDP-43 PROTEIN DEGRADATION, AND DRUG” (TALENGEN INTERNATIONAL LIMITED, priority 2022, published 2026)
